Source: PMC2409314, “Expression of zebrafish pax6b in pancreas is regulated by two enhancers containing highly conserved cis-elements bound by PDX1, PBX and PREP factors”

T1: PBX1a (long isoform);PREP1 (;, UniProt P41778;P55347 1-430;1-436, |)
T1 sequence 1: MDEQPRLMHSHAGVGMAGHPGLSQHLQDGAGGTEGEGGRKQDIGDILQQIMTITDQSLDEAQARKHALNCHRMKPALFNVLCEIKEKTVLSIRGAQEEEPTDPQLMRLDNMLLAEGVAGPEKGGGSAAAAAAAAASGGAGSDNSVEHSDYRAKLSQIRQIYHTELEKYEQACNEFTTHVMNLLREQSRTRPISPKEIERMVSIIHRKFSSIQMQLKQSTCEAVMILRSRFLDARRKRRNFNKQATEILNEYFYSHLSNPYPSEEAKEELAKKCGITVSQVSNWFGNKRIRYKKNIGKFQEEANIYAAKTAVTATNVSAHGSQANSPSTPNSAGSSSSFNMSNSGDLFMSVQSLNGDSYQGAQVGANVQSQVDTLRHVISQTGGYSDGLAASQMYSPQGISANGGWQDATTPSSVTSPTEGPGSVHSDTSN
T1 sequence 2: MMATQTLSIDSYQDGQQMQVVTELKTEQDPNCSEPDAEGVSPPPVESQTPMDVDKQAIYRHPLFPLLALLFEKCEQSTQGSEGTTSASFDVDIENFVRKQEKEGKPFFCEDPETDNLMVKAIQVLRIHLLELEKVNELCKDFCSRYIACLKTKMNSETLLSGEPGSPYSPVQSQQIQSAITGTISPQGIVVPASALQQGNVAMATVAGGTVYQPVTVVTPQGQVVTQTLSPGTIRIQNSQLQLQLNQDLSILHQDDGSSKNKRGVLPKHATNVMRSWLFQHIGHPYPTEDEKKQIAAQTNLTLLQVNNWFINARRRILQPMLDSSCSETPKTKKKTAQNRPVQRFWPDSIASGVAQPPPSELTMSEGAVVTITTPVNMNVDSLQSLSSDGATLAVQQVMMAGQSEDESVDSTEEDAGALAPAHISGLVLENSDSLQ


What was measured:
Assay in all cases: EMSA; 2 ug nuclear extract or 1 ul ivt protein, 0.1 ng 32P ds oligo, 1 ug poly(dI-dC); antiserum preincubation 15 min at room temperature; buffer, salt and pH not given (by reference)
PDX1 (STF-1) = PDX1 (STF-1) (UniProt P52947 1-283); conditions: protein: recombinant; label: 32P (Klenow); only top strand given; 5' GATC end, Klenow labelled
[1] = target: PBX1a (long isoform);PREP1;PDX1 (STF-1) (;;, UniProt P41778;P55347;P52947 1-430;1-436;1-283, ||); conditions: protein: ivt;ivt;recombinant; tags: ;;; copies: 1;1;1; label: 32P (Klenow); only top strand given; 5' GATC end, Klenow labelled
[2] = target: T1, PBX1a (long isoform);PREP1; conditions: protein: ivt;ivt; tags: ;; copies: 1;1; label: 32P (Klenow); only top strand given; 5' GATC end, Klenow labelled

Chain of PBX1a (long isoform);PREP1;PDX1 (STF-1) (P52947 whole entry, canonical isoform, one chain of several): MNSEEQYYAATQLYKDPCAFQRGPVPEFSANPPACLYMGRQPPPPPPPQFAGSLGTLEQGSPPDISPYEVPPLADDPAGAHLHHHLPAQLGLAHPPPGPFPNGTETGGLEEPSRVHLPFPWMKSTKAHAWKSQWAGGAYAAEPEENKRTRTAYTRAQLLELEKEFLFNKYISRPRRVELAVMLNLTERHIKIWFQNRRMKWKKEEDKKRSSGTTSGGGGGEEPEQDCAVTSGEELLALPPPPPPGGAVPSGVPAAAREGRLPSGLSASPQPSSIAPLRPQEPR
Chain of PDX1 (STF-1) (P52947 whole entry, canonical isoform): as the sequence (P52947 whole entry, canonical isoform, one chain of several) above

Binder | binding result (PDX1 (STF-1)) | binding result [1] | binding result [2]
PC3b (dsDNA) DNA 1: GATCTAGCTCTTAATTGTGGTT DNA 2: AACCACAATTAAGAGCTAGATC | binds | – | –
PA1b (dsDNA) DNA 1: GATCGCATCACGATCAATCACAGCGCT DNA 2: AGCGCTGTGATTGATCGTGATGCGATC | – | binds | binds
